Experimental data reported in publication PMC7820495.

T1: GST-SVIP (Drosophila SVIP, CG32039), Q8IQC6
T1 chain: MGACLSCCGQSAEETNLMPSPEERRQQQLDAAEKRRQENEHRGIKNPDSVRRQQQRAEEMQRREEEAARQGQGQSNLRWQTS


Target: T1, GST-SVIP (Drosophila SVIP, CG32039), …
Test: in vitro binding titration assay
Details: chain shown with the change;; parent: 0.70 uM

Row | Binder | Kd [nM]
1 | MBP-VCP^N-D1 (Drosophila VCP, N-terminal and first D1 ATPase domain), Q7KN62 N384H (protein) MADSKGEDLATAILKRKDRPNRLIVEEAQNDDNSVVSLSQAKMDELQLFRGDTVILKGKRRKETVCIVLSDDTCPDEKIRMNRVVRNNLCVHLSDVVSVQSCPDVKYGKRVRILPIDESTEGVTGNLFEIYLKPYFLEAYRPIHMGDNFIVRAAMRPIEFKVVLTDPEPYCIVAPETVIFCDGDPIKREEEEESLNAVGYDDIGGCRKQLAQIKEMVELPLRHPSLFKAIGVKPPRGILMYGPPGTGKTLIARAVANETGAFFFLINGPEIMSKLAGESESNLRKAFEEAEKNSPAIIFIDEIDAIAPKRDKTHGEVERRIVSQLLTLMDGMKKSSHLIVMAATNRPNSIDPALRRFGRFDREIDIGIPDATGRLEVLRIHTKHMKLHDDVDLEQIAAESHGHVGADLASLCSEAALQQIREKMDLIDLEDDKIDAEVLASLAVTMENFRYAMTKSSPSALRETVVEVPNTTWTDIGGLESVKKELQELVQYPVEHPDKFLKFGMQPSRGVLFYGPPGCGKTLLAKAIANECQANFISVKGPELLTMWFGESEANVRDIFDKARSAAPCVLFFDELDSIAKARGGNVGDAGGAADRVINQILTEMDGMGAKKNVFIIGATNRPDIIDPAILRPGRLDQLIYIPLPDDKSREAILKANLRKSPLAKEVDLTYIAKVTQGFSGADLTEICQRACKLAIRQAIEAEIRREKERAENQNSAMDMDEDDPVPEITSAHFEEAMKFARRSVSDNDIRKYEMFAQTLQQSRGFGQNFRFPGQTGNTSGSGNNLPVNSPGDNGDDDLYS | 1160
2 | MBP-VCP^N-D1 (Drosophila VCP, N-terminal and first D1 ATPase domain), Q7KN62 A436S (protein) MADSKGEDLATAILKRKDRPNRLIVEEAQNDDNSVVSLSQAKMDELQLFRGDTVILKGKRRKETVCIVLSDDTCPDEKIRMNRVVRNNLCVHLSDVVSVQSCPDVKYGKRVRILPIDESTEGVTGNLFEIYLKPYFLEAYRPIHMGDNFIVRAAMRPIEFKVVLTDPEPYCIVAPETVIFCDGDPIKREEEEESLNAVGYDDIGGCRKQLAQIKEMVELPLRHPSLFKAIGVKPPRGILMYGPPGTGKTLIARAVANETGAFFFLINGPEIMSKLAGESESNLRKAFEEAEKNSPAIIFIDEIDAIAPKRDKTHGEVERRIVSQLLTLMDGMKKSSHLIVMAATNRPNSIDPALRRFGRFDREIDIGIPDATGRLEVLRIHTKNMKLHDDVDLEQIAAESHGHVGADLASLCSEAALQQIREKMDLIDLEDDKIDSEVLASLAVTMENFRYAMTKSSPSALRETVVEVPNTTWTDIGGLESVKKELQELVQYPVEHPDKFLKFGMQPSRGVLFYGPPGCGKTLLAKAIANECQANFISVKGPELLTMWFGESEANVRDIFDKARSAAPCVLFFDELDSIAKARGGNVGDAGGAADRVINQILTEMDGMGAKKNVFIIGATNRPDIIDPAILRPGRLDQLIYIPLPDDKSREAILKANLRKSPLAKEVDLTYIAKVTQGFSGADLTEICQRACKLAIRQAIEAEIRREKERAENQNSAMDMDEDDPVPEITSAHFEEAMKFARRSVSDNDIRKYEMFAQTLQQSRGFGQNFRFPGQTGNTSGSGNNLPVNSPGDNGDDDLYS | 600
3 | MBP-VCP^N-D1 (Drosophila VCP, N-terminal and first D1 ATPase domain), Q7KN62 A154R (protein) MADSKGEDLATAILKRKDRPNRLIVEEAQNDDNSVVSLSQAKMDELQLFRGDTVILKGKRRKETVCIVLSDDTCPDEKIRMNRVVRNNLCVHLSDVVSVQSCPDVKYGKRVRILPIDESTEGVTGNLFEIYLKPYFLEAYRPIHMGDNFIVRARMRPIEFKVVLTDPEPYCIVAPETVIFCDGDPIKREEEEESLNAVGYDDIGGCRKQLAQIKEMVELPLRHPSLFKAIGVKPPRGILMYGPPGTGKTLIARAVANETGAFFFLINGPEIMSKLAGESESNLRKAFEEAEKNSPAIIFIDEIDAIAPKRDKTHGEVERRIVSQLLTLMDGMKKSSHLIVMAATNRPNSIDPALRRFGRFDREIDIGIPDATGRLEVLRIHTKNMKLHDDVDLEQIAAESHGHVGADLASLCSEAALQQIREKMDLIDLEDDKIDAEVLASLAVTMENFRYAMTKSSPSALRETVVEVPNTTWTDIGGLESVKKELQELVQYPVEHPDKFLKFGMQPSRGVLFYGPPGCGKTLLAKAIANECQANFISVKGPELLTMWFGESEANVRDIFDKARSAAPCVLFFDELDSIAKARGGNVGDAGGAADRVINQILTEMDGMGAKKNVFIIGATNRPDIIDPAILRPGRLDQLIYIPLPDDKSREAILKANLRKSPLAKEVDLTYIAKVTQGFSGADLTEICQRACKLAIRQAIEAEIRREKERAENQNSAMDMDEDDPVPEITSAHFEEAMKFARRSVSDNDIRKYEMFAQTLQQSRGFGQNFRFPGQTGNTSGSGNNLPVNSPGDNGDDDLYS | 3610
4 | MBP-VCP^N-D1 (Drosophila VCP, N-terminal and first D1 ATPase domain), Q7KN62 L195W (protein) MADSKGEDLATAILKRKDRPNRLIVEEAQNDDNSVVSLSQAKMDELQLFRGDTVILKGKRRKETVCIVLSDDTCPDEKIRMNRVVRNNLCVHLSDVVSVQSCPDVKYGKRVRILPIDESTEGVTGNLFEIYLKPYFLEAYRPIHMGDNFIVRAAMRPIEFKVVLTDPEPYCIVAPETVIFCDGDPIKREEEEESWNAVGYDDIGGCRKQLAQIKEMVELPLRHPSLFKAIGVKPPRGILMYGPPGTGKTLIARAVANETGAFFFLINGPEIMSKLAGESESNLRKAFEEAEKNSPAIIFIDEIDAIAPKRDKTHGEVERRIVSQLLTLMDGMKKSSHLIVMAATNRPNSIDPALRRFGRFDREIDIGIPDATGRLEVLRIHTKNMKLHDDVDLEQIAAESHGHVGADLASLCSEAALQQIREKMDLIDLEDDKIDAEVLASLAVTMENFRYAMTKSSPSALRETVVEVPNTTWTDIGGLESVKKELQELVQYPVEHPDKFLKFGMQPSRGVLFYGPPGCGKTLLAKAIANECQANFISVKGPELLTMWFGESEANVRDIFDKARSAAPCVLFFDELDSIAKARGGNVGDAGGAADRVINQILTEMDGMGAKKNVFIIGATNRPDIIDPAILRPGRLDQLIYIPLPDDKSREAILKANLRKSPLAKEVDLTYIAKVTQGFSGADLTEICQRACKLAIRQAIEAEIRREKERAENQNSAMDMDEDDPVPEITSAHFEEAMKFARRSVSDNDIRKYEMFAQTLQQSRGFGQNFRFPGQTGNTSGSGNNLPVNSPGDNGDDDLYS | 600

The next lines start with the values.

Row | Kd [nM] | Binder
5 | 21600 | MBP-VCP^N-D1 (Drosophila VCP, N-terminal and first D1 ATPase domain), Q7KN62 P134L (protein) MADSKGEDLATAILKRKDRPNRLIVEEAQNDDNSVVSLSQAKMDELQLFRGDTVILKGKRRKETVCIVLSDDTCPDEKIRMNRVVRNNLCVHLSDVVSVQSCPDVKYGKRVRILPIDESTEGVTGNLFEIYLKLYFLEAYRPIHMGDNFIVRAAMRPIEFKVVLTDPEPYCIVAPETVIFCDGDPIKREEEEESLNAVGYDDIGGCRKQLAQIKEMVELPLRHPSLFKAIGVKPPRGILMYGPPGTGKTLIARAVANETGAFFFLINGPEIMSKLAGESESNLRKAFEEAEKNSPAIIFIDEIDAIAPKRDKTHGEVERRIVSQLLTLMDGMKKSSHLIVMAATNRPNSIDPALRRFGRFDREIDIGIPDATGRLEVLRIHTKNMKLHDDVDLEQIAAESHGHVGADLASLCSEAALQQIREKMDLIDLEDDKIDAEVLASLAVTMENFRYAMTKSSPSALRETVVEVPNTTWTDIGGLESVKKELQELVQYPVEHPDKFLKFGMQPSRGVLFYGPPGCGKTLLAKAIANECQANFISVKGPELLTMWFGESEANVRDIFDKARSAAPCVLFFDELDSIAKARGGNVGDAGGAADRVINQILTEMDGMGAKKNVFIIGATNRPDIIDPAILRPGRLDQLIYIPLPDDKSREAILKANLRKSPLAKEVDLTYIAKVTQGFSGADLTEICQRACKLAIRQAIEAEIRREKERAENQNSAMDMDEDDPVPEITSAHFEEAMKFARRSVSDNDIRKYEMFAQTLQQSRGFGQNFRFPGQTGNTSGSGNNLPVNSPGDNGDDDLYS
6 | 1770 | MBP-VCP^N-D1 (Drosophila VCP, N-terminal and first D1 ATPase domain), Q7KN62 R156C (protein) MADSKGEDLATAILKRKDRPNRLIVEEAQNDDNSVVSLSQAKMDELQLFRGDTVILKGKRRKETVCIVLSDDTCPDEKIRMNRVVRNNLCVHLSDVVSVQSCPDVKYGKRVRILPIDESTEGVTGNLFEIYLKPYFLEAYRPIHMGDNFIVRAAMCPIEFKVVLTDPEPYCIVAPETVIFCDGDPIKREEEEESLNAVGYDDIGGCRKQLAQIKEMVELPLRHPSLFKAIGVKPPRGILMYGPPGTGKTLIARAVANETGAFFFLINGPEIMSKLAGESESNLRKAFEEAEKNSPAIIFIDEIDAIAPKRDKTHGEVERRIVSQLLTLMDGMKKSSHLIVMAATNRPNSIDPALRRFGRFDREIDIGIPDATGRLEVLRIHTKNMKLHDDVDLEQIAAESHGHVGADLASLCSEAALQQIREKMDLIDLEDDKIDAEVLASLAVTMENFRYAMTKSSPSALRETVVEVPNTTWTDIGGLESVKKELQELVQYPVEHPDKFLKFGMQPSRGVLFYGPPGCGKTLLAKAIANECQANFISVKGPELLTMWFGESEANVRDIFDKARSAAPCVLFFDELDSIAKARGGNVGDAGGAADRVINQILTEMDGMGAKKNVFIIGATNRPDIIDPAILRPGRLDQLIYIPLPDDKSREAILKANLRKSPLAKEVDLTYIAKVTQGFSGADLTEICQRACKLAIRQAIEAEIRREKERAENQNSAMDMDEDDPVPEITSAHFEEAMKFARRSVSDNDIRKYEMFAQTLQQSRGFGQNFRFPGQTGNTSGSGNNLPVNSPGDNGDDDLYS
7 | 1500 | MBP-VCP^N-D1 (Drosophila VCP, N-terminal and first D1 ATPase domain), Q7KN62 R188Q (protein) MADSKGEDLATAILKRKDRPNRLIVEEAQNDDNSVVSLSQAKMDELQLFRGDTVILKGKRRKETVCIVLSDDTCPDEKIRMNRVVRNNLCVHLSDVVSVQSCPDVKYGKRVRILPIDESTEGVTGNLFEIYLKPYFLEAYRPIHMGDNFIVRAAMRPIEFKVVLTDPEPYCIVAPETVIFCDGDPIKQEEEEESLNAVGYDDIGGCRKQLAQIKEMVELPLRHPSLFKAIGVKPPRGILMYGPPGTGKTLIARAVANETGAFFFLINGPEIMSKLAGESESNLRKAFEEAEKNSPAIIFIDEIDAIAPKRDKTHGEVERRIVSQLLTLMDGMKKSSHLIVMAATNRPNSIDPALRRFGRFDREIDIGIPDATGRLEVLRIHTKNMKLHDDVDLEQIAAESHGHVGADLASLCSEAALQQIREKMDLIDLEDDKIDAEVLASLAVTMENFRYAMTKSSPSALRETVVEVPNTTWTDIGGLESVKKELQELVQYPVEHPDKFLKFGMQPSRGVLFYGPPGCGKTLLAKAIANECQANFISVKGPELLTMWFGESEANVRDIFDKARSAAPCVLFFDELDSIAKARGGNVGDAGGAADRVINQILTEMDGMGAKKNVFIIGATNRPDIIDPAILRPGRLDQLIYIPLPDDKSREAILKANLRKSPLAKEVDLTYIAKVTQGFSGADLTEICQRACKLAIRQAIEAEIRREKERAENQNSAMDMDEDDPVPEITSAHFEEAMKFARRSVSDNDIRKYEMFAQTLQQSRGFGQNFRFPGQTGNTSGSGNNLPVNSPGDNGDDDLYS
